“Also recorded” adds a separate entry of the source.
How the values were obtained:
[1] = target: T1, plasminogen (Homo sapiens, UniProt P00747); test: Reactivity of peptide library with plasminogen, Dot-Blot method; type: binding; settings: peptide immobilized on nitrocellulose film; HRP-labeled anti-plasminogen antibody; DAB staining
Description: FIG. 11 is a photograph after staining with DAB reagent in a Dot-Blot measurement, for detecting the binding between each of the peptide 1 to peptide 8 and plasminogen. The numbers 1 to 8 in FIG. 11 indicate the locations at which peptide solutions of the peptide 1 to peptide 8 were dropped, respectively, and P indicates the locations at which plasminogen solutions (positive control) were dropped.
(§1) A peptide library of peptides 1 to 8 (SEQ ID NOs: 10 to 17), which are divided peptides obtained from a 35-residue sequence of 254th to 288th residues (FIG. 2) of the amino acid sequence of the parasite enolase, was used. Each of the peptides of the peptide library was allowed to react with plasminogen using a Dot-Blot method and an ELISA method, thereby carrying out a search for an amino acid sequence recognized by plasminogen.
The reactivity of the peptides was measured by a Dot-Blot method, using a 10% acetonitrile solution of each of 8 types of peptides, peptide 1 to peptide 8, by the following steps in the following order; (a) immobilization of each peptide on a nitrocellulose film (pore size: 0.45 μm); (b) reaction with plasminogen in a plasminogen solution; (c) reaction with an HRP-labeled anti-plasminogen antibody; and (d) DAB staining.

[2] = target: T1, plasminogen; test: Reactivity of peptide library with plasminogen, ELISA method; type: binding; settings: peptide immobilized in wells; plasminogen 1 μg/well; HRP modified anti-plasminogen antibody, TMB staining
Protocol: FIG. 12 is a photograph of a plate after staining with TMB reagent in an ELISA measurement, for detecting the binding between each of the peptide 1 to peptide 8 and plasminogen. Each of the peptide 1 to peptide 8 was immobilized in each of the wells of the plate, and then allowed to react with plasminogen. Detection of binding was carried out by staining with an HRP modified-anti-plasminogen antibody and TMB reagent.
FIG. 13 is a graph of absorbance data (at 450 nm) taken after staining with TMB in an ELISA measurement, for detecting the binding between each of the peptide 1 to peptide 8 and plasminogen (plasminogen concentration: 1 μg/well).
as §1
Next, in order to digitize and quantify the reaction of the peptide library with plasminogen, the detection of binding by an ELISA method was carried out.

[3] = system: P. falciparum; test: Vaccine trial in owl monkeys; type: in vivo; settings: 13 owl monkeys, vaccinated
Protocol: Subsequently, a vaccine trial was carried out using as antigens enolase derived from P. falciparum and an AD22 partial sequence peptide, and using 13 owl monkeys. The changes in the percentage of parasitism of P. falciparum in red blood cells in the peripheral blood of the owl monkeys were plotted.
The antigen which causes owl monkeys to acquire immunity is a chemically synthesized peptide antigen having a tandem structure in which four 22-residue peptides (AD22) are tandemly arranged, and has a structure represented by the following Structural Formula (A). Although Xaa in the Structural Formula (A) of the antigen is arbitrary, a Cys(Acm) residue, which is a Cys residue whose side chain is protected by an acetamidomethyl group, is used at this time.

T1 sequence (P00747 20-810 limits assumed): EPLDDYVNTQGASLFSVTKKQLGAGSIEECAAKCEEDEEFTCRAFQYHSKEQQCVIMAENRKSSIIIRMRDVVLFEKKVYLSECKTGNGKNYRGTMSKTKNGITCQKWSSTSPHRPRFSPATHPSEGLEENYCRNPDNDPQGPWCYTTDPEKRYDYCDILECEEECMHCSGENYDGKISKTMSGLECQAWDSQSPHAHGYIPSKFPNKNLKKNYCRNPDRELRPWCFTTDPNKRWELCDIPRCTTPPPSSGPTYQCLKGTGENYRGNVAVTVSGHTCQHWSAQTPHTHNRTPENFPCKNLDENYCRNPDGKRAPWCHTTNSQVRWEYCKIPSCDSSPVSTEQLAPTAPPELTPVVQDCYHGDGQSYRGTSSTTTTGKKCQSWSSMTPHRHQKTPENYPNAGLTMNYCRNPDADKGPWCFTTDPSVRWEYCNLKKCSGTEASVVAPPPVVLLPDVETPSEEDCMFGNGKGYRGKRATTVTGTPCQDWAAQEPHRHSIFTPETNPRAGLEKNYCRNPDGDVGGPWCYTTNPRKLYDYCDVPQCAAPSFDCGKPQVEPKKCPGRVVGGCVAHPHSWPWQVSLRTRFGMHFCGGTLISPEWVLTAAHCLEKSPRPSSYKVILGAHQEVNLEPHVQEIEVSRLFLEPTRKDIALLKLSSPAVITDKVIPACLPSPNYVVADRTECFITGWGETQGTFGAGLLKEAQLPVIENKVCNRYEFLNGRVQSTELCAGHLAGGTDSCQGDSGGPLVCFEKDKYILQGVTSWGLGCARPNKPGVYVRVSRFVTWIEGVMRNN

Molecule | binding of peptide chains with plasminogen [1] | reactivity with plasminogen (absorbance at 450 nm) [2] | percentage of parasitism of P. falciparum in red blood cells in the peripheral blood [3]
2: divided peptide from the 254th to 288th residue sequence of parasite enolase; SEQ ID NO: 11 (FYNSENKTYDK; listed as Plasmodium falciparum) [compound 2] | binding of peptide chains with plasminogen was observed |  | 
5: 10-residue divided peptide from the 254th to 288th residue sequence of parasite enolase; SEQ ID NO: 14 (PNNDKSLVKTK; listed as Plasmodium falciparum) [compound 5] |  | relatively high reactivity with plasminogen | 
peptide 3: 10-residue divided peptide of parasite enolase, NKT sequence then YDLDFKT sequence; SEQ ID NO: 12 (NKTYDLDFKTK; listed as Plasmodium falciparum) | binding of peptide chains with plasminogen was observed | relatively high reactivity with plasminogen; also recorded: highest reactivity with plasminogen, among the 10-residue peptides | 
peptide 7: 25-residue peptide sequence from the 254th to 288th residues of parasite enolase; SEQ ID NO: 16 (VAASEFYNSENKTYDLDFKTPNNDK; listed as Plasmodium falciparum) | binding of peptide chains with plasminogen was observed | high reactivity with plasminogen | 
peptide 8: 35-residue peptide sequence, 254th to 288th residues of parasite enolase; SEQ ID NO: 17 (VAASEFYNSENKTYDLDFKTPNNDKSLVKTGAQLVK; listed as Plasmodium falciparum) | binding of peptide chains with plasminogen was observed | high reactivity with plasminogen | 
enolase derived from P. falciparum: P. falciparum-derived enolase, a glycolytic enzyme, used as vaccine antigen (protein, UniProt Q8IJN7 1-446, looked up) Enolase: MAHVITRINAREILDSRGNPTVEVDLETNLGIFRAAVPSGASTGIYEALELRDNDKSRYLGKGVQKAIKNINEIIAPKLIGMNCTEQKKIDNLMVEELDGSKNEWGWSKSKLGANAILAISMAVCRAGAAANKVSLYKYLAQLAGKKSDQMVLPVPCLNVINGGSHAGNKLSFQEFMIVPVGAPSFKEALRYGAEVYHTLKSEIKKKYGIDATNVGDEGGFAPNILNANEALDLLVTAIKSAGYEGKVKIAMDVAASEFYNSENKTYDLDFKTPNNDKSLVKTGAQLVDLYIDLVKKYPIVSIEDPFDQDDWENYAKLTAAIGKDVQIVGDDLLVTNPTRITKALEKNACNALLLKVNQIGSITEAIEACLLSQKNNWGVMVSHRSGETEDVFIADLVVALRTGQIKTGAPCRSERNAKYNQLLRIEESLGNNAVFAGEKFRLQLN |  |  | a rapid increase in the percentage of parasitism was in inhibited
